Assay results published in patent US11779649B2, “Antibodies to PMEL17 and conjugates thereof” (Novartis AG, priority 2018, dated 2023).
Changes are numbered by the printed parent chain. Starred links: 1 amine or outer side, 2 acyl side, 3 side chain; linkers in the order of their positions; H or OH if unused. Positions of bridges follow the written chain, without caps; N, C: chain ends. Non-standard residues stand in square brackets, D forms with d. Residues, ends and D or L forms follow the SMILES beside them. *: point of attachment. Leu(3R-OH,Nα-propionyl) = CCC(=O)N[C@H](C(=O)*)[C@H](O)C(C)C; X1 = CC(C)[C@@H](O[*:3])[C@H](N[*:1])C(=O)[*:2]; NMeT = CN[C@H](C(=O)O)[C@@H](C)O; dPhLac = O=C(O)[C@H](O)Cc1ccccc1; NMeA = CN[C@@H](C)C(=O)O; NMeDha = C=C(NC)C(=O)O

B1: Y010903: anti-PMEL17 antibody (IgG) (antibody, V domains shown)
VH: EVQLVESGGGLVKPGGSLRLSCAASGFTFSNAWMSWVRQAPGKGLEWVGRIKSKTDAGTTDYAAPVKGRFTISRDDSKNTLYLQMNSLKTEDTAVYYCARASHRLHSLFDVWGQGTLVTVSS
VL: DIQMTQSPSTLSASVGDRVTITCRASQSISSWLAWYQQKPGKAPKLLIYDASSLESGVPSRFSGSGSGTEFTLTISSLQPEDFATYYCQQGLFYPHTFGQGTKVEIK
B2: MOR024353: anti-PMEL17 antibody (IgG) (antibody, V domains shown)
VH: QVQLVQSGAEVKKPGSSVKVSCKASGGTFSDYAISWVRQAPGQGLEWMGGIIPIFGDANYAQKFQGRVTITADESTSTAYMELSSLRSEDTAVYYCAREGSSYFYMAYWGQGTLVTVSS
VL: SYELTQPLSVSVALGQTARITCSGDNIGSKLASWYQQKPGQAPVLVIYDDSNRPSGIPERFSGSNSGNTATLTISRAQAGDEADYYCAATAGDRWAYVFGGGTKLTVL
B3: Y010900: anti-PMEL17 antibody (IgG) (antibody, V domains shown)
VH: EVQLVESGGGLVKPGGSLRLSCAASGFTFSNAWMSWVRQAPGKGLEWVGRIKSKTDAGTTDYAAPVKGRFTISRDDSKNTLYLQMNSLKTEDTAVYYCARTIYPSAPSSSLDYWGQGTLVTVSS
VL: DIQMTQSPSSLSASVGDRVTITCRASQGISNYLAWYQQKPGKVPKLLIYAASTLQSGVPSRFSGSGSGTDFTLTISSLQPEDVATYYCQQLIFFPLTFGQGTKVEIK
B4: Y010910: anti-PMEL17 antibody (IgG) (antibody, V domains shown)
VH: EVQLVESGGGLVKPGGSLRLSCAASGFTFSNAWMSWVRQAPGKGLEWVGRIKSKTDAGTTDYAAPVKGRFTISRDDSKNTLYLQMNSLKTEDTAVYYCARVASPSAPGGFDYWGQGTLVTVSS
VL: B3 VL with L91S, I92L, F94A, L96F
B5: MOR024354: anti-PMEL17 antibody (IgG) (antibody, V domains shown)
VH: QVQLLESGGGLVQPGGSLRLSCAASGFTFSSFGMSWVRQAPGKGLEWVSAISYSGSDTYYADSVKGRFTISRDNSKNTLYLQMNSLRAEDTAVYYCARDVGVMDYWGQGTLVTVSS
VL: SYELTQPLSVSVALGQTARITCSGDNLGTYYAHWYQQKPGQAPVLVIYSQSHRPSGIPERFSGSNSGNTATLTISRAQAGDEADYYCGAWDAPSPELVFGGGTKLTVL
B6: Y010355: anti-PMEL17 antibody (IgG) (antibody, V domains shown)
VH: EVQLVESGGGLVKPGGSLRLSCAASGFTFSNYWISWVRQAPGKGLEWVGRIKSKTYGGTTDYAEPVKGRFTISRDDSKNTLYLQMNSLKTEDTAVYYCARTSRRSYAFDYWGQGTLVTVSS
VL: B1 VL with G91I, L92T, F93R, H96V
B7: Y010356: anti-PMEL17 antibody (IgG) (antibody, V domains shown)
VH: EVQLVESGGGLVKPGGSLRLSCAASGFTFSNYWISWVRQAPGKGLEWVGRIKSKTYGGTTDYAEPVKGRFTISRDDSKNTLYLQMNSLKTEDTAVYYCARVSGYYSHSGGFDVWGQGTLVTVSS
VL: B3 VL with Q90K, L91T, I92W, F93R, F94T, L96G
B8: Y010906: anti-PMEL17 antibody (IgG) (antibody, V domains shown)
VH: EVQLVESGGGLVKPGGSLRLSCAASGFTFSNAWMSWVRQAPGKGLEWVGRIKSKTDAGTTDYAAPVKGRFTISRDDSKNTLYLQMNSLKTEDTAVYYCARDEYPWGWFDVWGQGTLVTVSS
VL: B3 VL with L11V, N31S, Y32W, V43A, T53S, V83F, L91Y, F94Y

The molecules below were run on 92.1 uveal melanoma (assay: Resazurin-based viability assay, 92.1 uveal melanoma cells). Details: 92.1 GNAQ^Q209L; Table 1; read-out: GI50 (nM) 92.1GNAQ^Q209L.
Type: cell-based
Experimental: (§1) Following drug treatment for 96 or 120 hours, cell viability and proliferation were determined using a resazurin-based viability assay. Briefly, cells were incubated with a resazurin-based solution and color change was detected by absorbance with a spectrophotometer and used as a readout of cell viability. Data presented as mean of 3 independent replicates and relative to PBS-treated cells (control).
as §1, with “(control) (FIG. 6).” for “(control).”
Following drug treatment for 96 or 120 hours, cell viability and proliferation were determined using a resazurin-based viability assay. Data presented as mean of 3 independent replicates and relative to PBS-treated cells (control) (FIG. 8).
as §1

| Molecule | GI50 [nM] |
| --- | --- |
| C=C1C(=O)N[C@@H](C)C(=O)N(C)[C@@H](C)C(=O)N[C@@H]([C@H](OC(=O)[C@@H](NC(=O)CC)[C@H](O)C(C)C)C(C)C)C(=O)N(C)[C@@H]([C@@H](C)OC)C(=O)O[C@H](C)[C@H](NC(C)=O)C(=O)O[C@H](Cc2ccccc2)C(=O)N1C [Compound (A3), (R)-1-((3S,6S,9S,12S,18R,21S,22R)-21-acetamido-18-benzyl-3-((R)-1-methoxyethyl)-4,9,10,12,16,22-hexamethyl-15-methylene-2,5,8,11,14,17,20-heptaoxo-1,19-dioxa-4,7,10,13,16-pentaazacyclodocosan-6-yl)-2-methylpropyl (2S,3R)-3-hydroxy-4-methyl-2-propionamidopentanoate] (Ac-T[dPhLac][NMeDha]A[NMeA][X1](Leu(3R-OH,Nα-propionyl))[NMeT](Me); ester 1-C) | 9.3 |

Each molecule was assayed against T1, human PMEL17 (Homo sapiens, UniProt P40967) (assay: Apparent affinity by FACS titration of IgGs on G-361 melanoma cell line). Details: G-361, Alexa Fluor-labelled detection antibody; read-out: FACS EC50 (nM) G-361 (Alexa Fluor).
T1 construct: G-361 melanoma cell line expresses human PMEL17 at a lower level compared to the HKB11-human PMEL17 overexpressing cell line; endogenous in cells; host or cells: G-361 (human melanoma)
T1 sequence (P40967 25-661): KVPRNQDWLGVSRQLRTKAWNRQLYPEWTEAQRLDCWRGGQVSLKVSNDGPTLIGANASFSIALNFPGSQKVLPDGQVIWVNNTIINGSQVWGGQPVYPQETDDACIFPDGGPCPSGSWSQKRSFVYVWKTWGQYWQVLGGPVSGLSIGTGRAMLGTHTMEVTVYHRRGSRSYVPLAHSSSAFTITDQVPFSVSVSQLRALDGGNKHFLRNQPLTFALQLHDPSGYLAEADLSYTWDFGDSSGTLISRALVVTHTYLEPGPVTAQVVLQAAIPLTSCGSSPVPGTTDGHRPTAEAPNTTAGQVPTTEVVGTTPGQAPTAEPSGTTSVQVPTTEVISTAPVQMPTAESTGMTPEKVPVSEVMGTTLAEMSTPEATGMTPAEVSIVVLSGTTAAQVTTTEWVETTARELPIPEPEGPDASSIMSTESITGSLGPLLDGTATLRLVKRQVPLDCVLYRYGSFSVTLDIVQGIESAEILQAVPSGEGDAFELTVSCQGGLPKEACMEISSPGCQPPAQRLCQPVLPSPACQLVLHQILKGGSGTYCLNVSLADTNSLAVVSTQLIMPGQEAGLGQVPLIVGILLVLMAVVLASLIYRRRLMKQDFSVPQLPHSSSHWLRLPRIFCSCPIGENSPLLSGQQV
Type: binding
Experimental: (§2) Purified IgGs were titrated on a variety of PMEL17 expressing and PMEL17 non expressing cell lines (for control) to determine EC50 values. Cells were harvested using Accutase, adjusted to ˜4×10^6 cells/ml into FACS buffer (PBS, 3% FCS and 0.02% Na-Azide) and kept on ice to avoid internalization. 15 μl of cell suspension/well were transferred into 384 well V-bottom plates (Greiner, Cat #781280) and incubated with 15 μl of IgGs at different concentrations (most commonly from 200 to 3.5×10−3 nM) for 1 hour at 4° C., gently shaking. Following incubation, cells were washed three times with FACS buffer. After each washing step, cells were centrifuged (250×g, 5 min, 4° C.) and carefully resuspended. 15 μl of detection antibody conjugated to PE (PE-conjugated goat anti-human IgG, F(ab′)2 fragment specific, 1:150 in FACS buffer; Jackson Immuno Research, #109-116-097) or Alexa Fluor (Alexa Fluor-conjugated goat anti-human IgG, F(ab′)2 fragment specific, 1:150 in FACS buffer; Jackson Immuno Research, #109-606-097) were added and samples were incubated for 45 minutes to 1 hour on ice in the dark, gently shaking. After 3 washing steps, cells were resuspended in 30 μl of FACS buffer and samples were measured using the IntelliCyt HTFC device. EC50 values were calculated using the Graphpad Prism software. G-361 melanoma cell line expresses human PMEL17 at a lower level compared to the HKB11-human PMEL17 overexpressing cell line, and therefore allows a more precise ranking of the clones depending on their apparent affinity on cells.
The cross-specificity of the IgGs was evaluated in does response FACS on G-361 (human melanoma), HKB11-cyno-PMEL17, HKB11-rat PMEL17 and B16-F10 (mouse PMEL17 expressing melanoma) (Table 3). […]

| Molecule | EC50 [nM] |
| --- | --- |
| B1 | 3.2 |
| B2 | 62.8 |
| B3 | 1.3 |
| B4 | 10 |
| B5 | 1.7 |

Same assay, conditions: G-361, PE-labelled detection antibody; read-out: FACS EC50 (nM) G-361 (PE)

| Molecule | EC50 [nM] |
| --- | --- |
| B6 | 0.5 |
| B7 | 1.6 |

The molecules below were run against T2, mouse PMEL17 (Mus musculus, UniProt Q60696) (assay: Apparent affinity by FACS titration of IgGs on B16-F10 melanoma cells). Details: Alexa Fluor.
T2 construct: B16-F10 (mouse PMEL17 expressing melanoma); endogenous in cells; host or cells: B16-F10 (mouse melanoma)
T2 sequence (Q60696 24-626): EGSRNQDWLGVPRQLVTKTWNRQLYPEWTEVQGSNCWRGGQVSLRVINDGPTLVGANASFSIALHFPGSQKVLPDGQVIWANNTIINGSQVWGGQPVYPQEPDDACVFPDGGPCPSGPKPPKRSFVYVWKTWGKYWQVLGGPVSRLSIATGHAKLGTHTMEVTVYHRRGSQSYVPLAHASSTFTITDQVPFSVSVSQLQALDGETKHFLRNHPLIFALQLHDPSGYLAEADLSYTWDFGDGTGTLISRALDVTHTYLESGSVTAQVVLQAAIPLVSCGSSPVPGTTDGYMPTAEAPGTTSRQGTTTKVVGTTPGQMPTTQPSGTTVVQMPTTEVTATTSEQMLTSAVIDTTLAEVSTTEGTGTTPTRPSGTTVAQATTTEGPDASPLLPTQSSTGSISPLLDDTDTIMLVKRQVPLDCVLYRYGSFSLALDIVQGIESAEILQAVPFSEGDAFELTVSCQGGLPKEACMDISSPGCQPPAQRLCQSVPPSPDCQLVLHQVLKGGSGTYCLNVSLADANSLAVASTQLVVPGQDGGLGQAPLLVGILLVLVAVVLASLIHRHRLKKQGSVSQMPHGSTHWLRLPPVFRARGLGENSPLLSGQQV
Type: binding
Experimental: as §2
(§3) The cross-specificity of the IgGs was evaluated in does response FACS on G-361 (human melanoma), HKB11-cyno-PMEL17, HKB11-rat PMEL17 and B16-F10 (mouse PMEL17 expressing melanoma) (Table 3). Testing on G-361 was performed using a detection antibody labelled to PE. In contrast, an Alexa-Fluor labelled detection antibody had to be used for testing the candidates on the other cell lines so as to reach detectable signals.

| Molecule | EC50 [nM] |
| --- | --- |
| B2 | > 100 |
| B3 | > 100 |
| B5 | > 100 |

Each molecule was assayed on UACC-62 (assay: FACS titration of IgGs on UACC-62 cells). Details: UACC-62, PE-labelled detection antibody.
Type: binding
Experimental: as §2

| Molecule | UACC-62 (PE) |
| --- | --- |
| B6 | Negative |
| B1 | Negative |
| B2 | Negative |
| B3 | Negative |
| B8 | Negative |
| B4 | Negative |
| B7 | Negative |
| B5 | Negative |

What follows are molecules tested on PMEL17 (assay: Cross-reactivity (cross-specificity profile) of anti-PMEL17 IgGs in dose response FACS). Details: h human, c cyno, r rat, m mouse.
Type: binding
Design: key: h/c/r/m: human/cyno/rat/mouse; h/c/r: human/cyno/rat; h/c/(m): human/cyno/mouse; h/c: human/cyno
Experimental: as §3
IgGs were classified into several epitope groups according to their cross-specificity profiles.

| Molecule | Cross spe profile (based on C14 detection ab) |
| --- | --- |
| B6 | h/c/r/m |
| B1 | h/c/(m) |
| B2 | h/c |
| B3 | h/c/r/m |
| B8 | h/c/r/m |
| B4 | h/c/(m) |
| B7 | h/c/r/m |
| B5 | h/c/r |
